Results taken from the supplement of paper PMC10266784.

B1: library; numbered along this chain (parent)
chain: MAAAAAAAAEQQSSNGPVKKSMREKAVERRSVNKEHNSNFKAGYIPIDEDRLHKTGLRGRKGNLAICVIILLFILAVINLIITLVIWAVIRIGPNGCDSMEFHESGLLRFKQVSDMGVIHPLYKSTVGGRRNENLVITGNNQPIVFQQGTTKLSVENNKTSITSDIGMQFFDPRTQNILFSTDYETHEFHLPSGVKSLNVQKASTERITSNATSDLNIKVDGRAIVRGNEGVFIMGKTIEFHMGGNMELKAENSIILNGSVMVSTTRLPSSSSGDQLGSGDWVRYKLCMCADGTLFKVQVTSQNMGCQISDNPCGNTH

Variants of: B1
Assay: SGCB cell-surface expression functional score (HA stain, bin4 vs bin1, normalised to synonymous) (log10 ratio); higher = more cell-surface SGCB (functional)
Procedure, shortened: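 The functional score is a log ratio of variant frequency in the highest versus the lowest intensity bin, expressed as a median over codons and duplicate transductions. Codon-saturation libraries of HA-tagged, YFP-fused human beta-sarcoglycan were transduced by lentivirus at MOI <0.1 into HEK293 cells stably expressing alpha-, gamma- and delta-sarcoglycan, and the cells were stained on ice with Alexa Fluor 647 anti-HA, fixed and sorted into four 5% intensity bins before amplicon sequencing. Synonymous variants were scaled to mean 0, SD 0.5 within each section.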

Variant | SGCB cell-surface expression functional score (log10)
MAAAAAAAAEQQSSNGPVKKSMREKAVERRSVNKEHNSNFKAGYIPIDEDRLHKTGLRGRKGNLAICVIILLFILAVINLIITLVIWAVIRIGPNGCDSMEFHESGLLRFKTVSDMGVIHPLYKSTVGGRRNENLVITGNNQPIVFQQGTTKLSVENNKTSITSDIGMQFFDPRTQNILFSTDYETHEFHLPSGVKSLNVQKASTERITSNATSDLNIKVDGRAIVRGNEGVFIMGKTIEFHMGGNMELKAENSIILNGSVMVSTTRLPSSSSGDQLGSGDWVRYKLCMCADGTLFKVQVTSQNMGCQISDNPCGNTH [Q112T] | -0.79
MAAAAAAAAEQQSSNGPVKKSMREKAVERRSVNKEHNSNFKAGYIPIDEDRLHKTGLRGRKGNLAICVIILLFILAVINLIITLVIWAVIRIGPNGCDSMEFHESGLLRFKVVSDMGVIHPLYKSTVGGRRNENLVITGNNQPIVFQQGTTKLSVENNKTSITSDIGMQFFDPRTQNILFSTDYETHEFHLPSGVKSLNVQKASTERITSNATSDLNIKVDGRAIVRGNEGVFIMGKTIEFHMGGNMELKAENSIILNGSVMVSTTRLPSSSSGDQLGSGDWVRYKLCMCADGTLFKVQVTSQNMGCQISDNPCGNTH [Q112V] | -0.18
MAAAAAAAAEQQSSNGPVKKSMREKAVERRSVNKEHNSNFKAGYIPIDEDRLHKTGLRGRKGNLAICVIILLFILAVINLIITLVIWAVIRIGPNGCDSMEFHESGLLRFKSVSDMGVIHPLYKSTVGGRRNENLVITGNNQPIVFQQGTTKLSVENNKTSITSDIGMQFFDPRTQNILFSTDYETHEFHLPSGVKSLNVQKASTERITSNATSDLNIKVDGRAIVRGNEGVFIMGKTIEFHMGGNMELKAENSIILNGSVMVSTTRLPSSSSGDQLGSGDWVRYKLCMCADGTLFKVQVTSQNMGCQISDNPCGNTH [Q112S] | -0.17
MAAAAAAAAEQQSSNGPVKKSMREKAVERRSVNKEHNSNFKAGYIPIDEDRLHKTGLRGRKGNLAICVIILLFILAVINLIITLVIWAVIRIGPNGCDSMEFHESGLLRFKWVSDMGVIHPLYKSTVGGRRNENLVITGNNQPIVFQQGTTKLSVENNKTSITSDIGMQFFDPRTQNILFSTDYETHEFHLPSGVKSLNVQKASTERITSNATSDLNIKVDGRAIVRGNEGVFIMGKTIEFHMGGNMELKAENSIILNGSVMVSTTRLPSSSSGDQLGSGDWVRYKLCMCADGTLFKVQVTSQNMGCQISDNPCGNTH [Q112W] | -0.83
MAAAAAAAAEQQSSNGPVKKSMREKAVERRSVNKEHNSNFKAGYIPIDEDRLHKTGLRGRKGNLAICVIILLFILAVINLIITLVIWAVIRIGPNGCDSMEFHESGLLRFKYVSDMGVIHPLYKSTVGGRRNENLVITGNNQPIVFQQGTTKLSVENNKTSITSDIGMQFFDPRTQNILFSTDYETHEFHLPSGVKSLNVQKASTERITSNATSDLNIKVDGRAIVRGNEGVFIMGKTIEFHMGGNMELKAENSIILNGSVMVSTTRLPSSSSGDQLGSGDWVRYKLCMCADGTLFKVQVTSQNMGCQISDNPCGNTH [Q112Y] | -0.7
MAAAAAAAAEQQSSNGPVKKSMREKAVERRSVNKEHNSNFKAGYIPIDEDRLHKTGLRGRKGNLAICVIILLFILAVINLIITLVIWAVIRIGPNGCDSMEFHESGLLRFKQDSDMGVIHPLYKSTVGGRRNENLVITGNNQPIVFQQGTTKLSVENNKTSITSDIGMQFFDPRTQNILFSTDYETHEFHLPSGVKSLNVQKASTERITSNATSDLNIKVDGRAIVRGNEGVFIMGKTIEFHMGGNMELKAENSIILNGSVMVSTTRLPSSSSGDQLGSGDWVRYKLCMCADGTLFKVQVTSQNMGCQISDNPCGNTH [V113D] | -0.21
MAAAAAAAAEQQSSNGPVKKSMREKAVERRSVNKEHNSNFKAGYIPIDEDRLHKTGLRGRKGNLAICVIILLFILAVINLIITLVIWAVIRIGPNGCDSMEFHESGLLRFKQKSDMGVIHPLYKSTVGGRRNENLVITGNNQPIVFQQGTTKLSVENNKTSITSDIGMQFFDPRTQNILFSTDYETHEFHLPSGVKSLNVQKASTERITSNATSDLNIKVDGRAIVRGNEGVFIMGKTIEFHMGGNMELKAENSIILNGSVMVSTTRLPSSSSGDQLGSGDWVRYKLCMCADGTLFKVQVTSQNMGCQISDNPCGNTH [V113K] | 0.32
MAAAAAAAAEQQSSNGPVKKSMREKAVERRSVNKEHNSNFKAGYIPIDEDRLHKTGLRGRKGNLAICVIILLFILAVINLIITLVIWAVIRIGPNGCDSMEFHESGLLRFKQNSDMGVIHPLYKSTVGGRRNENLVITGNNQPIVFQQGTTKLSVENNKTSITSDIGMQFFDPRTQNILFSTDYETHEFHLPSGVKSLNVQKASTERITSNATSDLNIKVDGRAIVRGNEGVFIMGKTIEFHMGGNMELKAENSIILNGSVMVSTTRLPSSSSGDQLGSGDWVRYKLCMCADGTLFKVQVTSQNMGCQISDNPCGNTH [V113N] | -0.49
MAAAAAAAAEQQSSNGPVKKSMREKAVERRSVNKEHNSNFKAGYIPIDEDRLHKTGLRGRKGNLAICVIILLFILAVINLIITLVIWAVIRIGPNGCDSMEFHESGLLRFKQLSDMGVIHPLYKSTVGGRRNENLVITGNNQPIVFQQGTTKLSVENNKTSITSDIGMQFFDPRTQNILFSTDYETHEFHLPSGVKSLNVQKASTERITSNATSDLNIKVDGRAIVRGNEGVFIMGKTIEFHMGGNMELKAENSIILNGSVMVSTTRLPSSSSGDQLGSGDWVRYKLCMCADGTLFKVQVTSQNMGCQISDNPCGNTH [V113L] | -0.01
MAAAAAAAAEQQSSNGPVKKSMREKAVERRSVNKEHNSNFKAGYIPIDEDRLHKTGLRGRKGNLAICVIILLFILAVINLIITLVIWAVIRIGPNGCDSMEFHESGLLRFKQASDMGVIHPLYKSTVGGRRNENLVITGNNQPIVFQQGTTKLSVENNKTSITSDIGMQFFDPRTQNILFSTDYETHEFHLPSGVKSLNVQKASTERITSNATSDLNIKVDGRAIVRGNEGVFIMGKTIEFHMGGNMELKAENSIILNGSVMVSTTRLPSSSSGDQLGSGDWVRYKLCMCADGTLFKVQVTSQNMGCQISDNPCGNTH [V113A] | -0.4
MAAAAAAAAEQQSSNGPVKKSMREKAVERRSVNKEHNSNFKAGYIPIDEDRLHKTGLRGRKGNLAICVIILLFILAVINLIITLVIWAVIRIGPNGCDSMEFHESGLLRFKQQSDMGVIHPLYKSTVGGRRNENLVITGNNQPIVFQQGTTKLSVENNKTSITSDIGMQFFDPRTQNILFSTDYETHEFHLPSGVKSLNVQKASTERITSNATSDLNIKVDGRAIVRGNEGVFIMGKTIEFHMGGNMELKAENSIILNGSVMVSTTRLPSSSSGDQLGSGDWVRYKLCMCADGTLFKVQVTSQNMGCQISDNPCGNTH [V113Q] | -0.79
MAAAAAAAAEQQSSNGPVKKSMREKAVERRSVNKEHNSNFKAGYIPIDEDRLHKTGLRGRKGNLAICVIILLFILAVINLIITLVIWAVIRIGPNGCDSMEFHESGLLRFKQPSDMGVIHPLYKSTVGGRRNENLVITGNNQPIVFQQGTTKLSVENNKTSITSDIGMQFFDPRTQNILFSTDYETHEFHLPSGVKSLNVQKASTERITSNATSDLNIKVDGRAIVRGNEGVFIMGKTIEFHMGGNMELKAENSIILNGSVMVSTTRLPSSSSGDQLGSGDWVRYKLCMCADGTLFKVQVTSQNMGCQISDNPCGNTH [V113P] | 0.22
MAAAAAAAAEQQSSNGPVKKSMREKAVERRSVNKEHNSNFKAGYIPIDEDRLHKTGLRGRKGNLAICVIILLFILAVINLIITLVIWAVIRIGPNGCDSMEFHESGLLRFKQHSDMGVIHPLYKSTVGGRRNENLVITGNNQPIVFQQGTTKLSVENNKTSITSDIGMQFFDPRTQNILFSTDYETHEFHLPSGVKSLNVQKASTERITSNATSDLNIKVDGRAIVRGNEGVFIMGKTIEFHMGGNMELKAENSIILNGSVMVSTTRLPSSSSGDQLGSGDWVRYKLCMCADGTLFKVQVTSQNMGCQISDNPCGNTH [V113H] | -0.84
MAAAAAAAAEQQSSNGPVKKSMREKAVERRSVNKEHNSNFKAGYIPIDEDRLHKTGLRGRKGNLAICVIILLFILAVINLIITLVIWAVIRIGPNGCDSMEFHESGLLRFKQCSDMGVIHPLYKSTVGGRRNENLVITGNNQPIVFQQGTTKLSVENNKTSITSDIGMQFFDPRTQNILFSTDYETHEFHLPSGVKSLNVQKASTERITSNATSDLNIKVDGRAIVRGNEGVFIMGKTIEFHMGGNMELKAENSIILNGSVMVSTTRLPSSSSGDQLGSGDWVRYKLCMCADGTLFKVQVTSQNMGCQISDNPCGNTH [V113C] | -0.61
MAAAAAAAAEQQSSNGPVKKSMREKAVERRSVNKEHNSNFKAGYIPIDEDRLHKTGLRGRKGNLAICVIILLFILAVINLIITLVIWAVIRIGPNGCDSMEFHESGLLRFKQISDMGVIHPLYKSTVGGRRNENLVITGNNQPIVFQQGTTKLSVENNKTSITSDIGMQFFDPRTQNILFSTDYETHEFHLPSGVKSLNVQKASTERITSNATSDLNIKVDGRAIVRGNEGVFIMGKTIEFHMGGNMELKAENSIILNGSVMVSTTRLPSSSSGDQLGSGDWVRYKLCMCADGTLFKVQVTSQNMGCQISDNPCGNTH [V113I] | 0.04
MAAAAAAAAEQQSSNGPVKKSMREKAVERRSVNKEHNSNFKAGYIPIDEDRLHKTGLRGRKGNLAICVIILLFILAVINLIITLVIWAVIRIGPNGCDSMEFHESGLLRFKQGSDMGVIHPLYKSTVGGRRNENLVITGNNQPIVFQQGTTKLSVENNKTSITSDIGMQFFDPRTQNILFSTDYETHEFHLPSGVKSLNVQKASTERITSNATSDLNIKVDGRAIVRGNEGVFIMGKTIEFHMGGNMELKAENSIILNGSVMVSTTRLPSSSSGDQLGSGDWVRYKLCMCADGTLFKVQVTSQNMGCQISDNPCGNTH [V113G] | -0.67
MAAAAAAAAEQQSSNGPVKKSMREKAVERRSVNKEHNSNFKAGYIPIDEDRLHKTGLRGRKGNLAICVIILLFILAVINLIITLVIWAVIRIGPNGCDSMEFHESGLLRFKQESDMGVIHPLYKSTVGGRRNENLVITGNNQPIVFQQGTTKLSVENNKTSITSDIGMQFFDPRTQNILFSTDYETHEFHLPSGVKSLNVQKASTERITSNATSDLNIKVDGRAIVRGNEGVFIMGKTIEFHMGGNMELKAENSIILNGSVMVSTTRLPSSSSGDQLGSGDWVRYKLCMCADGTLFKVQVTSQNMGCQISDNPCGNTH [V113E] | -0.5
MAAAAAAAAEQQSSNGPVKKSMREKAVERRSVNKEHNSNFKAGYIPIDEDRLHKTGLRGRKGNLAICVIILLFILAVINLIITLVIWAVIRIGPNGCDSMEFHESGLLRFKQMSDMGVIHPLYKSTVGGRRNENLVITGNNQPIVFQQGTTKLSVENNKTSITSDIGMQFFDPRTQNILFSTDYETHEFHLPSGVKSLNVQKASTERITSNATSDLNIKVDGRAIVRGNEGVFIMGKTIEFHMGGNMELKAENSIILNGSVMVSTTRLPSSSSGDQLGSGDWVRYKLCMCADGTLFKVQVTSQNMGCQISDNPCGNTH [V113M] | -0.22
MAAAAAAAAEQQSSNGPVKKSMREKAVERRSVNKEHNSNFKAGYIPIDEDRLHKTGLRGRKGNLAICVIILLFILAVINLIITLVIWAVIRIGPNGCDSMEFHESGLLRFKQFSDMGVIHPLYKSTVGGRRNENLVITGNNQPIVFQQGTTKLSVENNKTSITSDIGMQFFDPRTQNILFSTDYETHEFHLPSGVKSLNVQKASTERITSNATSDLNIKVDGRAIVRGNEGVFIMGKTIEFHMGGNMELKAENSIILNGSVMVSTTRLPSSSSGDQLGSGDWVRYKLCMCADGTLFKVQVTSQNMGCQISDNPCGNTH [V113F] | -0.38
